Results on one molecule are retold here after patent US20170146518A1 (CENTRE NATIONAL DE LA RECHERCHE SCIENTIFIQUE CNRS, published 2017).

Non-standard residues stand in square brackets, D forms with d. No end group written: not given here. pGlu = O=C1CC[C@@H](C(=O)O)N1; Nle = CCCC[C@H](N)C(=O)O

Assay [1] concerns the target T1, HA-APJ (transfected in HEK-293T cells) (human, UniProt P35414 1-380).
T1 construct: HA-APJ construct from Dr. L. Zheng (Chun et al., 2008); also called APJ-HA; APJ-expression plasmid; not shown: HA tag
T1 sequence: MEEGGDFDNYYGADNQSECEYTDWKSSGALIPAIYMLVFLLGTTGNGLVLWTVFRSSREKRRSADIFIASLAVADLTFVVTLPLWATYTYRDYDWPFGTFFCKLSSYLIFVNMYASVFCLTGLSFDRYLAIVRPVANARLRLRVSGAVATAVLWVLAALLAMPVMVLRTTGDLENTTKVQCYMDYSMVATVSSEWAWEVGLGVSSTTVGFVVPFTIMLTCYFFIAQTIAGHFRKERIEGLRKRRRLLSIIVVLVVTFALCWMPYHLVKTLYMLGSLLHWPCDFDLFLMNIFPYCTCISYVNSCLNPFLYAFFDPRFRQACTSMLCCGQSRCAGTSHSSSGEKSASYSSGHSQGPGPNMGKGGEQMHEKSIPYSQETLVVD
In words: radioligand binding, membranes of HEK-293T transfected with APJ or with APJ and GP130. Here is the method:
Homogenates were cleared by 5 min centrifugation at 3000 rpm. Then cells were resuspended in binding buffer ([…] Hepes, 5 mM MgCl2 and 1% BSA) and ultracentrifuged to obtain cell membranes. Membranes were then incubated with [125I][<Glu65,Nle75,Tyr77]apelin-13 (Perkin Elmer) in 100 μl of the binding buffer at room temperature for 90 min. In order to determine the amounts of nonspecific binding, unlabeled [<Glu65,Nle75,Tyr77] apelin-13 (Sigma) was simultaneously added After incubation, bound and free radioactivities were separated through rapid filtration using the glass-fiber filter units (GF/C, Packard Instrument Co.) of a cell harvester (Packard). Filter units were completely dried, and Microcinti O (Packard) was added to each well. The radioactivity of each well was counted with a TopCount liquid scintillation counter (Packard). The dissociation constant (Kd) and the number of binding sites (B max) were determined by the method of Scatchard.

Assay [2] deals with T2, APJ (endogenous, in patient-derived GSCs) (human, UniProt P35414 1-380).
T2 construct: Endogenous receptor of patient-derived glioblastoma stem-like cells, tested on intact cells, in membrane preparations or in lysates; also called Apelin receptor; APLNR
T2 sequence: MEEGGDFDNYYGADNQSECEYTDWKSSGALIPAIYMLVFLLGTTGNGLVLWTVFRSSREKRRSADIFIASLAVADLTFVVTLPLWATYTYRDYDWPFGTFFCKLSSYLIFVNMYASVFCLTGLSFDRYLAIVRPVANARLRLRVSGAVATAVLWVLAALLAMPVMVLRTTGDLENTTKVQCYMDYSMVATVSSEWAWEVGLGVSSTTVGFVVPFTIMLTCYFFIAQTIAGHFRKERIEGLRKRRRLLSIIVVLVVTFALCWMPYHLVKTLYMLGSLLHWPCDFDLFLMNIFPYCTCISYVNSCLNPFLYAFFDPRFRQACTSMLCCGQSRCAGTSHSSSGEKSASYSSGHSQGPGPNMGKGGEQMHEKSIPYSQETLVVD
The assay is described as follows: radioactive binding assay in GSCs using GP130-siRNA and anti-GP130 antibodies. The procedure:
Prior to binding experiments, 2×10⁶ GSCs were washed three times with DMEM/F12, and resuspended in binding buffer (DMEM/F12, 40 mM HEPES, 1% BSA). In order to determine the amount of nonspecific binding, 1 μM unlabeled [<Glu⁶⁵, Nle⁷⁵, Tyr⁷⁷]apelin-13 was added. Cells were pre-incubated with GP130 blocking antibody (2 μg/ml) when indicated. Cells were then incubated with 400 pM [¹²⁵I][<Glu⁶⁵,Nlc⁷⁵,Tyr⁷⁷]apelin-13 in agitation for 6 h at 4° C., and radioactivity was measured with a gamma counter (Beckman).

B1: [125I][<Glu65,Nle75,Tyr77]apelin-13 (peptide)
peptide: [pGlu]RPRLSHKGP[Nle]PY
modifications: also: 125I label, place not given here
Take B1: the binding result in assay [1] and in assay [2] was “binds” each time.
